In publication PMC13544220, “Glycemic and bodyweight effects of GIPR coding variation reflect differences in surface expression and intrinsic functional impairment” (Science Advances, 2026):
Where a chain is given by its changes, count along the chain named. Names may count otherwise.

How the values were obtained:
Assay type in all cases: cell-based, human
[1] = test system: wild-type and variant SNAP-GIPR; assay: Surface SNAP-GIPR expression (SNAP-tag labelling) in AD293 cells; details: for AD293 Surface: Fig S3E, mean; for Surface SNAP-GIPR expression: sheet Fig 1C;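 for all read-outs here: scaled to the experimental average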
Procedure, shortened: (§1)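 Read-out: whole-cell fluorescence of surface-only SNAP label (Alexa Fluor 647, 500 nM, 10 min, RT), wide-field 20X, several FOVs per well. Flat-field corrected, phase-contrast masked, nontransfected-well signal subtracted; normalized to experiment mean or wild-type.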

[2] = test system: wild-type and variant SNAP-GIPR; assay: Surface SNAP-GIPR expression (SNAP-tag labelling) in INS-1 cells; details: Fig 4G; Mean
Procedure, shortened: as §1

[3] = test system: wild-type and variant SNAP-GIPR; assay: Single-concentration GIP cAMP response by HTRF in AD293 cells; details: Fig S3F, HTRF, mean;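 note: ratio to experiment-wide average response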
Description: (§2) All variants were tested in parallel on each occasion to control for transfection efficiency differences between experiments.

[4] = test system: wild-type and variant SNAP-GIPR; assay: Single-concentration GIP cAMP response by HTRF in INS-1 cells; details: Fig S3E, mean
Description: as §2

[5] = test system: wild-type and variant SNAP-GIPR; assay: cADDis cAMP imaging in AD293 cells, ensemble, expression-matched and per decile; details: Fig S3F, cADDis, mean;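 note: Ensemble cells as % of IBMX/FSK response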
Procedure, shortened: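 Surface GIPR and cAMP are measured in individual AD293 cells coexpressing SNAP-tagged receptor and the green cADDis biosensor, imaged live at 37°C. Responses are reported ensemble, expression-matched against wild-type deciles with extremes trimmed, or within each variant's own surface deciles.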

[6] = test system: wild-type and variant SNAP-GIPR; assay: Constitutive and agonist-mediated internalization, reversible SNAP-tag labelling, AD293 cells; design: key to Internalisation, Vehicle / Internalisation, +GIP / Internalisation, GIP-only: % internalization: residual fluorescence after Mesna vs pre-Mesna; Surface expression: unit not given here; details: Mean; for +GIP internalisation (100 nM) / GIP-specific internalisation (100 nM) / Constitutive internalisation (100 nM) / Surface expression: Fig 4E; for +GIP internalisation (100 nM) / GIP-specific internalisation (100 nM): GIP 100 nM; for Internalisation, +GIP / Internalisation, GIP-only / Internalisation, Vehicle: Fig S4C, AD293
Procedure, shortened: (§3)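 Percentage internalization is read as the fraction of specific SNAP fluorescence that survives Mesna stripping, compared with the image taken before Mesna. Wells are imaged in TNE buffer at pH 8.6 and again after 10 min.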

[7] = test system: wild-type and variant SNAP-GIPR; assay: Constitutive and agonist-mediated internalization, reversible SNAP-tag labelling, INS-1 cells; design: key to Internalisation, GIP-only / Internalisation, Vehicle / Internalisation, +GIP: % internalization: residual fluorescence after Mesna vs pre-Mesna; details: Mean; for +GIP internalisation (100 nM) / GIP-specific internalisation (100 nM) / Constitutive internalisation (100 nM): Fig 4G; for +GIP internalisation (100 nM) / GIP-specific internalisation (100 nM): GIP 100 nM; for Internalisation, +GIP / Internalisation, GIP-only / Internalisation, Vehicle: Fig S4C, INS-1
Procedure, shortened: as §3

[8] = column repeated, paired with cAMP 100 nM

B1: G438S (protein, UniProt P48546 22-466, looked up, variant G438S)
Gastric inhibitory …: RAETGSKGQTAGELYQRWERYRRECQETLAAAEPPSGLACNGSFDMYVCWDYAAPNATARASCPWYLPWHHHVAAGFVLRQCGSDGQWGLWRDHTQCENPEKNEAFLDQRLILERLQVMYTVGYSLSLATLLLALLILSLFRRLHCTRNYIHINLFTSFMLRAAAILSRDRLLPRPGPYLGDQALALWNQALAACRTAQIVTQYCVGANYTWLLVEGVYLHSLLVLVGGSEEGHFRYYLLLGWGAPALFVIPWVIVRYLYENTQCWERNEVKAIWWIIRTPILMTILINFLIFIRILGILLSKLRTRQMRCRDYRLRLARSTLTLVPLLGVHEVVFAPVTEEQARGALRFAKLGFEIFLSSFQGFLVSVLYCFINKEVQSEIRRGWHHCRLRRSLGEEQRQLPERAFRALPSGSGPSEVPTSRGLSSGTLPGPGNEASRELESYC
- AD293 Surface [1, 8]: 1.603
- AD293 Surface ([1]; paired with cAMP 100 pM): 1.603
- Surface SNAP-GIPR expression ([1]; replicate 1): 1.682
- Surface SNAP-GIPR expression ([1]; replicate 2): 1.688
- Surface SNAP-GIPR expression ([1]; replicate 3): 1.832
- Surface SNAP-GIPR expression ([1]; replicate 4): 2.161
- Surface SNAP-GIPR expression ([1]; replicate 5): 1.111
- Surface SNAP-GIPR expression ([1]; replicate 6): 1.49
- Surface SNAP-GIPR expression ([1]; replicate 7): 1.615
- Surface SNAP-GIPR expression ([1]; replicate 8): 1.417
- Surface SNAP-GIPR expression ([1]; replicate 9): 1.842
- Surface SNAP-GIPR expression ([1]; replicate 10): 1.526
- Surface SNAP-GIPR expression ([1]; replicate 11): 1.806
- Surface SNAP-GIPR expression ([1]; replicate 12): 1.746
- Surface SNAP-GIPR expression ([1]; replicate 13): 1.595
- Surface SNAP-GIPR expression ([1]; replicate 14): 2.152
- Surface SNAP-GIPR expression ([1]; replicate 15): 1.581
- Surface SNAP-GIPR expression ([1]; replicate 16): 1.661
- Surface SNAP-GIPR expression ([1]; replicate 17): 1.607
- Surface SNAP-GIPR expression ([1]; replicate 18): 1.471
- Surface SNAP-GIPR expression ([1]; replicate 19): 1.527
- Surface SNAP-GIPR expression ([1]; replicate 20): 1.649
- Surface SNAP-GIPR expression ([1]; replicate 21): 1.401
- Surface SNAP-GIPR expression ([1]; replicate 22): 1.64
- Surface SNAP-GIPR expression ([1]; replicate 23): 1.516
- Surface SNAP-GIPR expression ([1]; replicate 24): 1.737
- Surface SNAP-GIPR expression ([1]; replicate 25): 1.567
- Surface SNAP-GIPR expression ([1]; replicate 26): 1.448
- Surface SNAP-GIPR expression ([1]; replicate 27): 1.549
- Surface SNAP-GIPR expression ([1]; replicate 28): 1.925
- Surface SNAP-GIPR expression ([1]; replicate 29): 1.515
- Surface SNAP-GIPR expression ([1]; replicate 30): 1.373
- Surface SNAP-GIPR expression ([1]; replicate 31): 1.117
- Surface SNAP-GIPR expression ([1]; replicate 32): 1.576
- Surface SNAP-GIPR expression ([1]; replicate 33): 1.347
- Surface SNAP-GIPR expression ([1]; replicate 34): 1.595
- Surface SNAP-GIPR expression ([1]; replicate 35): 1.243
- Surface SNAP-GIPR expression ([1]; replicate 36): 1.381
- Surface SNAP-GIPR expression ([1]; replicate 37): 1.612
- Surface SNAP-GIPR expression ([1]; replicate 38): 1.594
- Surface SNAP-GIPR expression ([1]; replicate 39): 1.863
- Surface SNAP-GIPR expression ([1]; replicate 40): 1.797
- Surface SNAP-GIPR expression ([1]; replicate 41): 1.787
- Surface expression [2]: 1.361
- AD293 100 pM HTRF [3]: 1.746
- AD293 100 nM HTRF [3]: 1.655
- INS-1 cAMP (100 nM) [4]: 1.306
- AD293 100 pM cADDis [5]: 35.9341
- AD293 100 nM cADDis [5]: 39.48
- +GIP internalisation (100 nM) [6]: 0.9894
- GIP-specific internalisation (100 nM) [6]: 0.334
- Constitutive internalisation (100 nM) [6]: 0.6554
- Surface expression [6]: 1.622
- Internalisation, +GIP [6]: 61.1161
- Internalisation, GIP-only [6]: 20.3657
- Internalisation, Vehicle [6]: 40.7504
- +GIP internalisation (100 nM) [7]: 0.7615
- GIP-specific internalisation (100 nM) [7]: 0.2318
- Constitutive internalisation (100 nM) [7]: 0.5297
- Internalisation, +GIP [7]: 53.475
- Internalisation, GIP-only [7]: 16.2333
- Internalisation, Vehicle [7]: 37.2417

B2: R300W (protein, UniProt P48546 22-466, looked up, variant R300W)
Gastric inhibitory …: B1 Gastric inhibitory … with R279W, S417G
- AD293 Surface [1, 8]: 0.7271
- AD293 Surface ([1]; paired with cAMP 100 pM): 0.7271
- Surface SNAP-GIPR expression ([1]; replicate 1): 0.3062
- Surface SNAP-GIPR expression ([1]; replicate 2): 0.3328
- Surface SNAP-GIPR expression ([1]; replicate 3): 0.1592
- Surface SNAP-GIPR expression ([1]; replicate 4): 0.8304
- Surface SNAP-GIPR expression ([1]; replicate 5): 0.6683
- Surface SNAP-GIPR expression ([1]; replicate 6): 0.6889
- Surface SNAP-GIPR expression ([1]; replicate 7): 0.4744
- Surface SNAP-GIPR expression ([1]; replicate 8): 0.7417
- Surface SNAP-GIPR expression ([1]; replicate 9): 0.7319
- Surface SNAP-GIPR expression ([1]; replicate 10): 0.4888
- Surface SNAP-GIPR expression ([1]; replicate 11): 0.5692
- Surface SNAP-GIPR expression ([1]; replicate 12): 0.5524
- Surface SNAP-GIPR expression ([1]; replicate 13): 0.6029
- Surface SNAP-GIPR expression ([1]; replicate 14): 0.8734
- Surface SNAP-GIPR expression ([1]; replicate 15): 0.6318
- Surface SNAP-GIPR expression ([1]; replicate 16): 0.7838
- Surface SNAP-GIPR expression ([1]; replicate 17): 0.7645
- Surface SNAP-GIPR expression ([1]; replicate 18): 0.8288
- Surface SNAP-GIPR expression ([1]; replicate 19): 0.8256
- Surface SNAP-GIPR expression ([1]; replicate 20): 0.8307
- Surface SNAP-GIPR expression ([1]; replicate 21): 0.7929
- Surface SNAP-GIPR expression ([1]; replicate 22): 0.7293
- Surface SNAP-GIPR expression ([1]; replicate 23): 0.8041
- Surface SNAP-GIPR expression ([1]; replicate 24): 0.7665
- Surface SNAP-GIPR expression ([1]; replicate 25): 0.8609
- Surface SNAP-GIPR expression ([1]; replicate 26): 0.8382
- Surface SNAP-GIPR expression ([1]; replicate 27): 0.9176
- Surface SNAP-GIPR expression ([1]; replicate 28): 0.9055
- Surface SNAP-GIPR expression ([1]; replicate 29): 1.047
- Surface SNAP-GIPR expression ([1]; replicate 30): 0.4161
- Surface SNAP-GIPR expression ([1]; replicate 31): 0.3148
- Surface SNAP-GIPR expression ([1]; replicate 32): 0.4777
- Surface SNAP-GIPR expression ([1]; replicate 33): 0.3827
- Surface SNAP-GIPR expression ([1]; replicate 34): 0.923
- Surface SNAP-GIPR expression ([1]; replicate 35): 0.8683
- Surface SNAP-GIPR expression ([1]; replicate 36): 0.9333
- Surface SNAP-GIPR expression ([1]; replicate 37): 0.8174
- Surface SNAP-GIPR expression ([1]; replicate 38): 1.012
- Surface SNAP-GIPR expression ([1]; replicate 39): 1.271
- Surface SNAP-GIPR expression ([1]; replicate 40): 1.105
- Surface SNAP-GIPR expression ([1]; replicate 41): 0.9446
- Surface expression [2]: 0.9197
- AD293 100 pM HTRF [3]: 0.5327
- AD293 100 nM HTRF [3]: 1.632
- INS-1 cAMP (100 nM) [4]: 1.326
- AD293 100 pM cADDis [5]: 30.0031
- AD293 100 nM cADDis [5]: 37.61
- +GIP internalisation (100 nM) [6]: 0.5841
- GIP-specific internalisation (100 nM) [6]: 0.1667
- Constitutive internalisation (100 nM) [6]: 0.4174
- Surface expression [6]: 1.0064
- Internalisation, +GIP [6]: 57.8459
- Internalisation, GIP-only [6]: 16.6116
- Internalisation, Vehicle [6]: 41.2342
- +GIP internalisation (100 nM) [7]: 0.4496
- GIP-specific internalisation (100 nM) [7]: 0.1127
- Constitutive internalisation (100 nM) [7]: 0.3368
- Internalisation, +GIP [7]: 49.27
- Internalisation, GIP-only [7]: 12.1983
- Internalisation, Vehicle [7]: 37.0717
